Test results published in publication PMC6570425, “Regulation of GLI1 by cis DNA elements and epigenetic marks”.

How the values were obtained:
GLI1 (aa 211-1106) = GLI1 (aa 211-1106) (human, UniProt P08151 211-1106); experiment: EMSA; Roche DIG gel shift kit binding buffer (1X from 5X; composition, salt and pH not given), 155 fmol probe, 20 pmol competitor, 4 C 20 min, 5% TBE gel; settings: protein: recombinant; label: digoxigenin (or 32P); blunt
GLI2 (aa 84-355) = GLI2 (aa 84-355) (human, UniProt P10070-1 84-355); experiment: as above; settings: protein: recombinant; tags: 6xHis; label: digoxigenin (or 32P); blunt
Sequence of GLI2 (aa 84-355) (P10070 412-683): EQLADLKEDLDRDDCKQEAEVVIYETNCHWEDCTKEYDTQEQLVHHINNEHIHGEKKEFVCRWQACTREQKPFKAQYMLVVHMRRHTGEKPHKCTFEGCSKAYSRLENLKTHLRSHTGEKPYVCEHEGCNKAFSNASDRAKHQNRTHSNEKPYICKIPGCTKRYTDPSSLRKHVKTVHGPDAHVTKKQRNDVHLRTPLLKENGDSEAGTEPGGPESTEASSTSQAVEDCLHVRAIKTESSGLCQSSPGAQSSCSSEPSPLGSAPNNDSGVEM

Sequence of GLI1 (aa 211-1106) (P08151 211-1106): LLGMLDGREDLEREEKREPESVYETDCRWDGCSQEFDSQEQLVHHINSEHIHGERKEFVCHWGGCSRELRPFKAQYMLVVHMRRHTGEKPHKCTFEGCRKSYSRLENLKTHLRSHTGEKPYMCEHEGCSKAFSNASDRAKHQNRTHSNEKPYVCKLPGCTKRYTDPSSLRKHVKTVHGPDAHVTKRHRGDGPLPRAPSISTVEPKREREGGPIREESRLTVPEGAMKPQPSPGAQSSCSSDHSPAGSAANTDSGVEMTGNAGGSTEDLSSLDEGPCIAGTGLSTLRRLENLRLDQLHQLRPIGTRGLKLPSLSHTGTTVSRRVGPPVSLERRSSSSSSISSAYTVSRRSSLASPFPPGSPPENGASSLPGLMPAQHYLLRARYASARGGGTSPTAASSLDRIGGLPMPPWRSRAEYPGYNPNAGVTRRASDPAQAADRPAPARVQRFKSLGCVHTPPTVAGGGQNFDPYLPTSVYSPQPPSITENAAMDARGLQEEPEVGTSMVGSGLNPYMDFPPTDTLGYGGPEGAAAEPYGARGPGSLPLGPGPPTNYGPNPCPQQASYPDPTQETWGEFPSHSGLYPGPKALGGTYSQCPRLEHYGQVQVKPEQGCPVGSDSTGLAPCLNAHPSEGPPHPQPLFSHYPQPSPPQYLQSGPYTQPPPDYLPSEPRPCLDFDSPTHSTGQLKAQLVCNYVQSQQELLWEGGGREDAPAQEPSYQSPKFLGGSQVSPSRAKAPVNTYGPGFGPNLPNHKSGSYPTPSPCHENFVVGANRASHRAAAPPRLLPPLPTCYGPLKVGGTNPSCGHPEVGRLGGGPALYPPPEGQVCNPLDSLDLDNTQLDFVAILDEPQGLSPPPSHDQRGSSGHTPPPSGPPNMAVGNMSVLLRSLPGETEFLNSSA

B1: GBS #5 (dsDNA)
DNA 1: AAGGTCGAGTTGGGAGGTCTTGGATGCGG
DNA 2: CCGCATCCAAGACCTCCCAACTCGACCTT
GLI1 (aa 211-1106)
  binding result: binds
GLI2 (aa 84-355)
  binding result: binds

B2: GBS #4 (dsDNA)
DNA 1: AGCATCCCGGGATCACCCACCGCGCCGGC
DNA 2: GCCGGCGCGGTGGGTGATCCCGGGATGCT
GLI1 (aa 211-1106)
  binding result: binds
GLI2 (aa 84-355)
  binding result: binds

B3: GBS #6 (dsDNA)
DNA 1: TCTACACACAGACCACACAGGCAAAGCTC
DNA 2: GAGCTTTGCCTGTGTGGTCTGTGTGTAGA
GLI1 (aa 211-1106)
  binding result: binds
GLI2 (aa 84-355)
  binding result: binds

B4: GBS #2 (dsDNA)
DNA 1: GGCGGCGACTTGGGTGGGCCGAGGAGGCA
DNA 2: TGCCTCCTCGGCCCACCCAAGTCGCCGCC
GLI1 (aa 211-1106)
  binding result: binds
GLI2 (aa 84-355)
  binding result: binds

B5: GBS #3 (dsDNA)
DNA 1: AGGGGAGATATGGGTGGGCTGTGGAACGC
DNA 2: GCGTTCCACAGCCCACCCATATCTCCCCT
GLI1 (aa 211-1106)
  binding result: binds
GLI2 (aa 84-355)
  binding result: binds

B6: GBS #1 (dsDNA)
DNA 1: CTCTGGCTCAGACCACCCTGCCTGCCCTT
DNA 2: AAGGGCAGGCAGGGTGGTCTGAGCCAGAG
GLI1 (aa 211-1106)
  binding result: binds
GLI2 (aa 84-355)
  binding result: binds
